# Fewer inactive variants are shown than the library holds.
# B1: TPR 5TU (parent)
# chain: GGAUCUUCUCGAUCUAACAAAAAAGACAAAUCUGCCACAAAGCUUGAGAGCAUCUUCGGAUGCAGAGGCGGCAGCCUUCGGUGGCGCGAUAGCGCCAACGUUCUCAACUAUGACACGCAAAACGCGUGCUCCGUUGAAUGGAGUUUAUCAUG
# Variants of: B1
# Assay: polymerase ribozyme fitness, log enrichment relative to wild type (log ratio); higher = more active; in vitro selection for triplet polymerase activity
# Method in brief: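 PCR was used to build mutant libraries for each subunit of a heterodimeric triplet polymerase ribozyme, which were then transcribed. A single in vitro selection round, in triplicate, used a frozen incubation at −7 °C and recovered extended constructs by gel excision, streptavidin beads and RT-PCR. Fitness is the logarithm of genotype enrichment relative to wild-type enrichment, averaged over replicates with inverse-variance weights. The logarithm is base 2, and after Illumina sequencing only genotypes with ≥10 input reads and ≥1 read per output were kept.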
row,Variant,polymerase ribozyme fitness (log ratio)
1,C5A C57U C95U C103G,-2.24
2,C5G U55G A73U,-3.69
3,U6A A23C C76G G94A G141C G152U,≤ -4.2
4,C5A G86U G141A,-1.49
5,U6C U31C A119G,-0.646
6,U6A U139C,-3.88
7,U6A A21U U55A,-0.47
8,C5G G50C A122U C125U,-3.46
9,C5G C108U,-3.65
10,U6A A115U G141U,-1.01
11,C5A C14G G59A C85A C118G U139A,≤ -4.2
12,C5U A28U C51G C75G C95U G141U,-4.02
13,C5G U44A G59A A121C A122G,≤ -4.2
14,U4G G50C C118U,≤ -4.2
15,U6C A26G A29U A73G C96A U104G,-3.88
16,U6A C85U C95A A120G,-1.78
17,C5G U15G A49U A91U C116A C149G,≤ -4.2
18,U4C U56G G83A C87A,≤ -4.2
19,U4C A49U C93A,-3.07
20,U4G C38U G86C C105G A138C,≤ -4.2
21,C5G A24C G48A A52C C85U G140U,≤ -4.2

row,Variant,polymerase ribozyme fitness (log ratio)
1,U4C A47C G84A G88A G92U A142G,≤ -4.2
2,U6A A24U A60G,0.116
3,C5G U45C,-1.55
4,C5G G48A U61A C99G C132G G133U A142C,≤ -4.2
5,U6C C32U C54A,-4
6,U4G C8G A19G A49U U53C A73G G83A A98G A113C A115U,≤ -4.2
7,U6C G48C G59U U145C,-0.905
8,C5G A21U C27U G46A G94C C105G G126A,≤ -4.2
9,U6A A26U U53G C103A U109C,≤ -4.2
10,U4G C99U,-0.868
11,U4C C18U U53A A73G U134C,-2.31
12,C5U C51A G117C,-2.16
13,U6C C76G G124U G128U,≤ -4.2
14,U6A A12U G50A C149A,≤ -4.2
15,C5G A21G C57G C93U A115U,-3.31
16,C5G A20C C32A G50C G124C G141C,≤ -4.2
17,U6A A20G U45A,-3.51
18,U4G G46A,-0.673
19,C5U C14G G59C C63U C85U U101G,-3.47
20,U4C C76U,-0.762
21,C5U A21G U139C U146A,-3.99

row,Variant,polymerase ribozyme fitness (log ratio)
1,U4A U31G A37C G86C C123G,≤ -4.2
2,C5A A30U U77A G92U,≤ -4.2
3,U6A C69U,-1.1
4,U6C A40C G50U A97U U104A G124C U130A,≤ -4.2
5,U6A U9G C14G G83C G112U G136C,≤ -4.2
6,C5G U77C C87G U134G,≤ -4.2
7,C5A A24U C36U G86A C87A U90G C93A,≤ -4.2
8,C5U A22U C69A G88U,≤ -4.2
9,C5A A91U,-4.1
10,C5U G62C G88C,≤ -4.2
11,C5G G84A A147C,-0.43
12,U4C C36G G50A C51A C75A G83A G112U C116A,≤ -4.2
13,U4G A30G C32A C85A G141C,≤ -4.2
14,U4A U6G G67C U82A U130G G143C,≤ -4.2
15,U6A U33A U55G C57U C79G G92A C131U,≤ -4.2
16,C5G A17G C32U A49C C54U U55G G88C C96A,≤ -4.2
17,C5A U13G C27A C36A C51U C87A,≤ -4.2
18,C5G A17G C93G C95U,-3.96
19,U6A A17G C27U A66U U145A,≤ -4.2
20,C5U A37U C51U,-1.26
21,C5A A29C G50U C51U G88A U90C,≤ -4.2

row,Variant,polymerase ribozyme fitness (log ratio)
1,C5G C18G G48U U53A C103G,-3.62
2,C5G A29U U55G U78A G92C C118U U145A,≤ -4.2
3,U4G C5U U55G A106C,-2.25
4,C5G A41C U134C,-1.61
5,C5A C93U A98G C103A,-3.31
6,U4C C8U A22U G50U C54U A107U C116G,≤ -4.2
7,U6C G71A G92A A97G G141U,≤ -4.2
8,C5A A20U A47U G74C G117A G126U,≤ -4.2
9,U4C C5A U15C C36G U53A,-4.12
10,C5U A16U C54U C87U G117A A119U,-1.75
11,U4C A52G G59U U145G,-1.5
12,C5G C85U,-1.17
13,C5G C85G,-1.46
14,U4G C14G A21U A30U C93G C131U G141A,≤ -4.2
15,U4A U33C G59A U90G C95A U111G C125A,≤ -4.2
16,C5A C85U C95G,-1.93
17,C5G C76U G84U A113U A122U,-4
18,U4G G140C,≤ -4.2
19,U6A C10G C75G U78C C96G A97G U102G,≤ -4.2
20,C5A A20C A41G C93A A147C,-1.66
21,C5G U53A C54G U77G U82C G92C C129G U144C,≤ -4.2

# From the RNAGym collection of RNA variant scans (doi:10.1073/pnas.2313332121)
